The DeepSol protein solubility set

Test: soluble on expression in E. coli; label from the status in PepcDB or PDB records

| Sequence | soluble on expression in E. coli |
| --- | --- |
| MVKNGRDPPERNFYCTEKEETAPPLMNIFDDFKSQIEREIMTIFLKTAYESLLSIAISTEIIVPEDETRSLEKEVIKLMKLMKLMNLLEPLGNRVSRLMGLVRNAEEHRERIVKRNQESDVREIFKIAASRTKTRFHKALQKESSSSSMKWGFTEAKDEVLSLGIRLTHALIKLTLLRVKKNDREKQLLLRDWIFDESYEKQSALMYLLDYLLYKAEEFAASVVVEESGNDHHRQHILEEDRIGDDILTRISEAIFILQLLAMNLSRNVLTERDLIATNDQLLRCVRDVKFVESTIVVLMKGRSLKLKHKGKQSLLMKERTETIFWAKVNAELNKCWGESFWKYVEAARHLEAVVSSQQIVYTLCKLFVFGFES | not soluble |
| MSLKRVLAVQRISRDTEASSALTRQDEALTRAIRQGTYREVGRVVDATVSGAVHLDQRPSLRRWLAEPLVHEWDVLMVTEQDRITRDDMHWWHFVDWTLKNGKDVEVLDDPTFDIQSEDGRMLAGIKAAQAAKYRKAVQAKQLDRTQFFRENRLWNGGVWPFGYRAEVFSHLGERRKRLTVDPCTSRLVREAYDRLVHGEGTVYAVARDWNLRGVPSARDHQRREQNKDLPEQEHRPEKGTRWSVTPLRNILRSPALMGVMMHRSEPVLDAEGQPVVWAEPVLTSEEFAELQEVVLTEQRTAESGPGKRWRTPLLGVVFCMCGRPMYVRHQKNHLADGTTAVLTYYQCRSVSEMNRCEAPSTWRAESLCAVVERDFLDQAGDRTEMKRTYVPGRDHTAAIAELRSALANLTVAIGTATAPAAVAVLTRQMDEHARTITRLEAEPVVHARWKEEPTGAAYREQWRAVKDWESRAALLAKAGVRFFCEGTHKSGSVHMYLPSASQRRVSGVSLSKEAVEVVGIGPLEEEARRYFTDLRRTKGMGPGFWYSREGHHHHHH | not soluble |
| SNAMSVVIYHNPKCSKSRETLALLENQGIAPQVIKYLETSPSVEELKRLYQQLGLNEVRAMMRCKEELYKELNLGDSQLSDDALFAAMAEHPKLIERPIVVCNGQARHGRPPEQVLEIL | soluble |
| MSEAEAKLWQHLRAGRLNGYKFRRQQPMGNYIVDFMCVTPKLIVEADGGQHAEQAVYDHARTVYLNSLGFTVLRFWNHEILQQTNDVLAEILRVLQELEKQ | soluble |
| KKVYLIHGWGANRHAFDDLMPRLPATWPVSAVDLPGHGDAPFAQPFDIEAAADGIAAQIDTSADILGWSLGGLVALYLAARHPDKVRSLCLTASFARLTAAEDYPEGLAAPALGKMVGAFRTDYAKHIKQFLQLQLLHTPDAAEIIGRILPDLARCGTPQALQEALDAAERADARHLLDKIDVPVLLVFGGKDAITPLRMGEYLHRHLKGSRLVVMEKAAHAPFLSHAEAFAALCRDFVEG | not soluble |
| MGSDKIHHHHHHMKAFQYAARAQRIVFGAGTIRQVGEEIDALGASSVLVLSTPEQRRLAEQVSDLLGARAIGIFDRAVMHVPVETARAACAMAFELGADSVVAIGGGSTTGLAKAIALEMSVPVLAIPTTYAGSEMTTIYGLTDAGLKRTGTDVRVLPRTVIYDPELTYLLPAAISVTSGINALAHAAEGLYAHDRNPISDLMAREGIQAMAAALPALVSERDTARLREARAQALYGAWLCGAVLGSVGVALHHKLCHTLGGSFNLPHAETHTIILPHALAYNAKAAPDAMASIAQALGADNAAQGAFDLARTTGAPLGLRQIGMREDELDKACEIALQNQYPNPRPLEAGAIRELLQNAWEGRRPV | not soluble |
| MHPRSKLSQAQRELAVDLFEEGYGSRAVANRLGVRREQVRHLEDRFRLHGRLCLVSKRTKRQYSFDTKMEILRRHKAGELKSDLAKEYGLSSPALINHWVWQVNKGGPDALRPKPKGRPKSSARPAPVTEEDKLRRENELLKAEVAYLKKLRDLRDQRRGLEHHHHHH | not soluble |
| MTTIGTRKRVAVVTGASSGIGEATARTLAAQGFHVVAVARRADRITALANQIGGTAIVADVTDDAAVEALARALSRVDVLVNNAGGAKGLQFVADADLEHWRWMWDTNVLGTLRVTRALLPKLIDSGDGLIVTVTSIAAIEVYDGGAGYTAAKHAQGALHRTLRGELLGKPVRLTEIAPGAVETEFSLVRFDGDQQRADAVYAGMTPLVAADVAEVIGFVATRPSHVNLDQIVIRPRDQASASRRATHPVR | not soluble |
| GPGSMIARAIANRAACTFLNISSSSLMSKWMGDGEKLVRCLFAVATVKQPSVIFIDEIDSLLSMRGEGETDSVRRVKTEFLVQLDGVATDRGDRVLLIGATNRPDELDEAARRRMEKRLYIPLPDEAARRELIQRLLKSLGPSEAGEDGAIGNAGEAASTATATTTTQVTHTLTDADLDTLVRSTDGYSGADLKQLCREAAMGPLREMSIMQLSAVAAADLRPVQRKDFRQALKRLKPSVGPAEVQRYVEWNKLFGSFNEHDDDDDDELEHHEGHGAC | soluble |
| MNDGDETLTAGAQGRQFGPLGTALVIIPTYNEAENIKSIVGRVRASVPEAHVLVADDNSPDGTGKLADELAVEDDQVHVLHRKGKEGLGAAYLAGFRWGLDNGYGVLVEMDADGSHRPEELPRLLTALKGADLVLGSRWVPGGRVVNWPKSREFISRGGSLYSRLALDLPQRDITGGYRAFRRETLEGLGLDEVASQGYCFQVDLARRTVKAGYHVVEVPITFVEREFGDSKMSRDILVEALWRVTTWGVGERVGRITGRGPKSSLEHHHHHH | not soluble |
| PKKDWLSYVVSSKARNKIKQQLRLQMESSIGVVKELLNRRLKNRKLPFEEAVFTRVVRRKGFKHLTDFYMEIAADRLDVQEVLELYSHELEEE | not soluble |
| MSLIIDCHGHVSAPVELWAYKASLLAHRGSHGRGGVKVTDEQIIAAAHHKETWPDGHIELLHNHGTDMQLISPRTFQMMNSAKPARVVHWFCEEVNTLIHRQCTLIPEMFIPVAGLPQVAGEPIENVFAEMDRCVSMGFKGFLLNPDPYENGAEEAPPLGDRYWYPLYEKLCELDLPAHIHATGSQSERSPYSLHFINEETIATYNLCTSSVFDDFPQLKVVVSHGGGAIPYQLGRFESQSRRSKHLFSERMAKLYFDTVLYTEGALRLLIETVGPERCLFGSECPGVGSTIDPATGKQMDHIAPFIQKFDFLSDADKKLIFEDNARKVFNLEVEGHHHHHH | soluble |
| MTMVQPSGGGASGRGSSSGLADVIDTILDKGLVIDAFVRVSVVGIEILTIDARIVVASVDTYLRFAEATNRLDLTQTGGKGLPEVLQDTTQGVSKSKTKGIAQGALETAGEKLRDIIGEPEEEEEPAPRRRRRREEE | not soluble |
| MSLAKEPLIRVLLIEDDPMVQEVNRMFVEKLSGFTIVGTTATGEEGMVKTRELQPDLILLDIFMPKQDGLSFIKQIREQYIDVDIIAVTAANDTKTIKTLLRYGVMDYLVKPFTFERLKAALTQYEEMFRKMQKEAELSQDSLDEMIKQKQAQANMDDLPKGLHAHTLQQVIERLEELDEPKSAEEIGRDVGLARVTVRRYLNYLESVGQVEMDLTYGSIGRPIQTYKLKEGHHHHHH | soluble |
| MGSDKIHHHHHHMPQFSPSYSFPVQIYYEDTDFSGVVYHPNFLKYFERAREHVIGAEQLRNLWQQQQLGFAVYRSDMLCHEGVEFADIIDIRTKFYFESKYRTVWHQEIWRPNGKKPAVTATIEMVCMNQARQLAPMPAELITQLSLGM | not soluble |
| MGSSHHHHHHSSGLVPRGSHMSLYREVDAFRVDDERRRVPEKVVNDIEVRIRINGGMEQRFTASPQALEEFATGYLLGEGLVDSVDDIVSIEISDNIIDAEIESGDLDIRRELVMGSDCFGGWRQRVEMVGPVDSDLRVRADDIFLAFKRMVKSAVVWRMTGGTHVAALVTGDEFRVFEDVSRHVAVDKVIGSGAMDGVNFRESFIVYSGRMPADMLIKVVRAGVPIIASNAAPTSSGYDAAQRTGLTMLGFVRGKRFNIYSHPERII | soluble |
| MNKAINIKKTAPLEVLHSELPYTQDPTALFHALCAGRSDCLLLESAEIDSKQNLKSLLLVDAAVRIVCEGHQVTYHALSANGQALLNIIHSNLTDRIPCKVEKAKLTLTFSTPCDTLDEDSRLREASSFDALRLVQHSFDLTDHGKFALFLGGLFAYDLVANFEPLGEAPADNQCPDYVFYVAETLMVIDHQRETCQLQATQFQPGDALHSQLKSRMREIRAQVNQKLPLPSAQSLSDVEVTTNISDAAFCDIVRDLKQYVVKGDVFQVVPSRRFRLPCPSPLAAYQRLKQSNPSPYMFYMQDERFTLFGASPESALKYEMHTNQVEIYPIAGTRRRGKRADGSIDFDLDSRIELELRTDKKENAEHMMLVDLARNDVARISQAGTRHVADLLQVDRYSHVMHLVSRVVGQLREDLDALHAYQACMNMGTLTGAPKIRAMQLIRDVEQARRGSYGGAVGYLTGEGDLDTCIVIRSAYVENGIAQVQAGAGVVYDSDPQAEADETRGKAQAVISAILYAHQGKE | not soluble |
| MRGSHHHHHHGSMQILLANPRGFCAGVDRAISIVENALAIYGAPIYVRHEVVHNRYVVDSLRERGAIFIEQISEVPDGAILIFSAHGVSQAVRNEAKSRDLTVFDATCPLVTKVHMEVARASRRGEESILIGHAGHPEVEGTMGQYSNPEGGMYLVESPDDVWKLTVKNEEKLSFMTQTTLSVDDTSDVIDALRKRFPKIVGPRKDDICYATTNRQEAVRALAEQAEVVLVVGSKNSSNSNRLAELAQRMGKRAFLIDDAKDIQEEWVKEVKCVGVTAGASAPDILVQNVVARLQQLGGGEAIPLEGREENIVFEVPKELRVDIREVD | soluble |
| TVVVSEAGASVYSASEFAANEFPNLDVSLRGAVSIARRLQDPLAELVKIEPKAIGVGQYQHDVNQTQLARKLDAVVEDCVNAVGVDLNTASAPLLARVAGMTKTLAQNIVEYRDENGRFESRSELKKVPRLGPKAFEQCAGFMRIANGKNPLDASGVHPEAYPVVEKILQATAQSIQDLMSNAGVVRQLDAKQFI | not soluble |
| SMSEHSAIVTWKRKDSEAFTDNQYSRAHTWEFDGGSKILASASPHVVPVPLSVEANVDPEEAFVAALSSCHMLVFLSIAAKQRYLVESYTDNAVGILGKNSKGKTSVTKVVLRPQVVFSGTSKPTLQQLEKMHHLAHENCFIANSVETEVVTEII | soluble |
| MNSYVKWIFVVLLICSLTAFVEKDKPTGGLSEGDVAPDFKIESASNGQPAFKLGNLKGKYVLLSFWASYDAQSRMQNVSLSNVLRSSRNVEMVSVSFDEYQSIFKETVRKDQIVTPTCFVETEGEDSRLFKKYRLNRGFTNYLLDGNGVIIAKNISAADLSAYVSEIG | not soluble |
| MGSDKIHHHHHHLSKLYPHAKNRQDSGMDRNPTLAQWQLAQELRRLRGDRKFSEVVKAARTTGGSLARWETPGDRGAVPGPAALERLLQIYGAEDQLERLLSLRKEARQPDRWQPYGLERSYRTYANIESQATSIEYYQSQIVPGIAQTEAYARAVIEATLHPSSDVDREVQARMERQRVLSKPERPDLWLIIAEGALRQQVGTSQVMADQIDRLIELSQEPGITLQVLPFTAGAHVAMRLAGFVIMSIAQHGITTVYIEGQNSGMFFTDSEDLAEYGMIFNRLRAACLDEGRPTRTLLERIARDHRRGEG | not soluble |
| MSLREIVWVHSQRIAPYKTLILNELRYYPLELDPTPFNALVFTSKNAVFSLLETLNNSPKLKTLQNIPAYALSEPTAKTLQDHHFKVAFIGKKAHGKEFAQEILPLLKGKSVLYLRAKEIASSLDTILLEHGIDFKQAVVYENKLKHLTLSEQNALKPKEKSVLIFTAISHAKAFLHYFEFLENYTAISIGNTTALYLQEQGIPSYIAKKPSLEACLELALNLKSEGHHHHHH | soluble |
